Measurements published in US20220340673A1 (HARBOUR BIOMED SUZHOU, published 2022).

Columns and labels:
[1] = target: T1, human BCMA on cells (HEK293T/huBCMA; NCI-H929) (human, UniProt Q02223 1-184); experiment: FACS on HEK293T cell strain overexpressing human BCMA [C]
T1 construct: whole, on cells; also called human BCMA molecules on NCI-H929 cell line
T1 sequence (looked up): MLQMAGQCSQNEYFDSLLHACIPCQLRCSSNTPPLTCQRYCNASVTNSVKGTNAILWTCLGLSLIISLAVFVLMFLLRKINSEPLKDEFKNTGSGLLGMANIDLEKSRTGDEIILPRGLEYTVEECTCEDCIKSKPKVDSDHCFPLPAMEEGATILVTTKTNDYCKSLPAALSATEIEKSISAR
Description: To study the in vitro binding activity of the BCMA arm of the BCMA×CD3 bispecific antibody, HEK293T cell strain overexpressing human BCMA (HEK293T/huBCMA) and HEK293T cell strain overexpressing cynomolgus monkey BCMA (HEK293T/cynoBCMA) were used for antibody binding experiments at cellular level. Briefly, HEK293T/huBCMA cells and HEK293T/cynoBCMA cells were digested and resuspended with DMEM complete medium. The cell density of the two was adjusted to 1×10⁶ cells/mL, respectively. Cells were inoculated at 100 μL cells/well in a 96 well V-bottom plate (Corning, Cat#: 3894), followed by the addition of test antibodies at 100 μL/well, which is gradient diluted at 3 folds of the concentration with 2 folds of the final concentration. Cells were incubated at 4° C. for 1 hour in the dark. Afterwards, the cells were washed twice with 100 μL/well of pre-cooled PBS, centrifuged at 500 g for 5 min at 4° C., and followed by discarding the supernatant. 100 μL/well of fluorescent secondary antibody (Alexa Fluor 488-conjugated AffiniPure Goat Anti-Human IgG, Fcγ Fragment Specific, Jackson, Cat#: 109-545-06, 1:500 dilution) was added and incubated for 30 min at 4° C. in the dark. […] Finally, the cells were resuspended with 200 μL/well of pre-cooled PBS, and the fluorescence luminescence signal values were read by BD FACS CANTOII. […]

[2] = target: T2, human BCMA-Fc, Avitag recombinant protein (ACRO, Cat. BC7-H82F0) (human, UniProt Q02223 1-54); experiment: Biacore, antigen coupled to a CM5 chip, PR003178 injected at 12-0.375 nM, 1:1 kinetic fit [E]
T2 construct: extracellular domain; Bought reagent; amine-coupled to the CM5 chip in the Biacore assay; also called recombinant human BCMA-ECD-Fc; human BCMA recombinant protein; not shown: Fc and Avitag of the bought protein
T2 sequence (looked up): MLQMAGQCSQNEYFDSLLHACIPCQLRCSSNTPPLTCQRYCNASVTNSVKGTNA
Experimental: (§1) Human BCMA-Fc, Avitag recombinant protein (ACRO, Cat. BC7-H82F0), cynomolgus monkey BCMA-Fc, Avitag (ACRO, Cat. BCA-C82F4) were purchased from ACRO, human CD3e/g ECD-hFc recombinant protein (Lot.20190508002), cynomolgus monkey CD3e/g ECD-hFc recombinant protein and human (Lot.2018040001) were purchased from ChemPartner.
(§2) The flow rate was set as 10 μl/min and four antigens were coupled on four channels on two CMS: 1) the injection time was set as 300 s, and 50 mM of NHS and 200 mM of EDC were freshly mixed at 1:1 volume ratio and injected into four channels; 2) human BCMA-Fc, Avitag recombinant protein, cynomolgus monkey BCMA-FC, Avitag, human CD3e/g ECD-hFc recombinant protein and cynomolgus CD3e/g ECD-hFc recombinant protein were all diluted to 1 μg/ml with sodium acetate (Cat# BR-1003-50) (pH 4.5), and injected into channel 2, 3 and 4 of chip 1 and channel 2 of chip 2, respectively; 3) 1 M of ethanolamine (pH8.5) was injected for 300 s to block the remaining active carboxyl groups on the chips surface. After blockage, the instrument was continued to be equilibrated with 1 ×HBS- EP+buffer for two hours. The final coupling amounts of human BCMA-Fc, Avitag recombinant protein, cynomolgus monkey BCMA-Fc, Avitag, human CD3e/g ECD-hFc recombinant protein and cynomolgus monkey CD3e/g ECD-hFc recombinant protein were 120 RU, 70 RU, 200 RU and 290 RU, respectively.
(§3) A multi-cycle kinetic mode was set, and each cycle included the binding of PRO03178 as well as the regeneration of the chip. PRO03178 with two-fold gradient dilution was injected into four channels at a flow rate of 30 μl/min. A binding time of 180 s and a dissociation time of 400 s or 600s were set. Finally, 10 mM of glycine-hydrochloric acid (pH 1.5) (GE Life Sciences, Cat# BR-1003-54) was injected at the same flow rate for 60 s to regenerate the chip.

[3] = target: T3, human CD3e/g ECD-hFc recombinant protein (human, UniProt P07766 23-126; P09693 23-116); experiment: as above
T3 construct: extracellular domain; Bought from ChemPartner; not shown: human Fc
T3 sequence (P07766 23-126, chain 1 of 2): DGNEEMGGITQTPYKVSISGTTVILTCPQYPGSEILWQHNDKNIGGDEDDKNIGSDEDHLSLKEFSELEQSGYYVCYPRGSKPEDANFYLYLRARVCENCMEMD
T3 sequence (P09693 23-116, chain 2 of 2): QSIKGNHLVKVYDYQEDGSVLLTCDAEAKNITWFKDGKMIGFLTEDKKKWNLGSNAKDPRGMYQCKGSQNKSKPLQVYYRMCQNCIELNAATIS
Experimental: as §1, §2, §3

[4] = target: T3, human CD3e/g ECD-hFc recombinant protein; experiment: SPR (Biacore T200), antigen amine-coupled on CM5, antibody as analyte, 1:1 fit
Experimental: as §2
A multi-cycle kinetic mode was set, and each cycle included the binding of PRO03178 as well as the regeneration of the chip. […]
The experimental results were analyzed by using Biacore T200 analysis software, and channel 1 was deducted as reference channel, and a 1:1 kinetic fit model was selected as the analysis model.

[5] = target: T1, human BCMA on cells (HEK293T/huBCMA; …); experiment: FACS on NCI-H929 cells
[6] = target: T4, cynomolgus monkey BCMA-Fc, Avitag (ACRO, Cat. BCA-C82F4) (cynomolgus monkey, UniProt A0A2K5UD97 1-53); experiment: Biacore, antigen coupled to a CM5 chip, PR003178 injected at 6-0.1875 nM, 1:1 kinetic fit [E]
T4 construct: Bought reagent; amine-coupled to the CM5 chip; also called cynomolgus monkey BCMA recombinant protein; not shown: Fc and Avitag of the bought protein
T4 sequence (A0A2K5UD97 entry or part of it): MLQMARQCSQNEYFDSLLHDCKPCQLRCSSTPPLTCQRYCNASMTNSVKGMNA
Experimental: as §1, §2, §3

B1: BCMA x CD3 bispecific antibody PR003178 (bispecific antibody, human IgG1, lambda, L234A L235A)
heavy 1: not shown
light: QAVVTQEPSLTVSPGGTVTLTCRSSTGAVTTSNYANWVQQKPGQAPRGLIGGTNKRAPWTPARFSGSLLGDKAALTLLGAQPEDEAEYFCALWYSNLWVFGGGTKLTVLGQPKAAPSVTLFPPSSEELQANKATLVCLISDFYPGAVTVAWKADSSPVKAGVETTTPSKQSNNKYAASSYLSLTPEQWKSHRSYSCQVTHEGSTVEKTVAPTECS
heavy 2: EVQLVETGGGLIQPGGSLRLSCAASGFTVSDNYMTWVRQAPGKGLEWVSVIFSGGNTYYADSVKGRFTISRDNAKNTLYLQMNSLRAEDTALYYCARRNYDDTRGTDVFDIWGQGTMVTVSSGGGGSGGGGSGGGGSEVQLVETGGGLIQPGGSLRLSCAASGFTVSDNYMTWVRQAPGKGLEWVSVIFSGGNTYYADSVKGRFTISRDNAKNTLYLQMNSLRAEDTALYYCARRNYDDTRGTDVFDIWGQGTMVTVSSASEPKSSDKTHTCPPCPAPEAAGGPSVFLFPPKPKDTLMISRTPEVTCVVVDVSHEDPEVKFNWYVDGVEVHNAKTKPREEQYNSTYRVVSVLTVLHQDWLNGKEYKCKVSNKALPAPIEKTISKAKGQPREPQVCTLPPSREEMTKNQVSLSCAVKGFYPSDIAVEWESNGQPENNYKTTPPVLDSDGSFFLVSKLTVDKSRWQQGNVFSCSVMHEALHNHYTQKSLSLSPGK
notes: Three chains: HC1 (anti-CD3 heavy, knob, LALA), LC (anti-CD3 lambda light), HC2 (two tandem anti-BCMA VH of PR001046 joined by (G4S)3, then Fc hole, LALA); also called PRO03178
[1]
  EC50: 188 pM
[2]
  koff: 0.000167 s⁻¹
  kon: 1.76e+06 M⁻¹ s⁻¹
[3]
  koff: 0.0149 s⁻¹
  kon: 588000 M⁻¹ s⁻¹
[4]
  Kd: ~25400 pM
[5]
  fold lower EC50 than positive control 2: ~8 fold
[6]
  Kd: 147 pM
  koff: 0.000285 s⁻¹
  kon: 1.94e+06 M⁻¹ s⁻¹
